Literature values in patent US20230042670A1, “Hypoparathyroidism Treatment” (Ascendis Pharma Bone Diseases A/S, priority 2020, published 2023).

What was measured:
[1] = tested on: patients with hypoparathyroidism
[2] = in vivo

PTH(1-84): short acting PTH molecule, approved drug for hypoparathyroidism; PTH 1-84, SEQ ID NO: 1
clinical episodes of hypercalcemia ([1]; on treatment versus placebo, 24 weeks): numerical increase
clinical episodes of hypocalcemia ([1]; versus placebo, 24 weeks): no significant difference
urinary calcium excretion ([1]; versus placebo, 24 weeks): no significant difference
patients achieving the primary endpoint (50% or greater reduction in daily oral calcium and active vitamin D while maintaining serum calcium) ([1]; week 24, 50 μg per day titrated up to 100 μg): 53%
half-life [2]: ~3 h
